Assay results: patent US12319742 (SHATTUCK LABS, dated 2025)
Changes are numbered by the printed parent chain. Names and notes keep the numbering of the source. One block for each binder: values may come before it.

Tests used:
[1] = biological target: T1, biotinylated recombinant human TNFRSF25-His tagged (Acro #TN5-H52H3) (human, UniProt Q93038 25-199, biotinylated); experiment: MSD competition; scFv supernatant serially diluted on TNFRSF25-coated plate, then TL1A added and the remaining TL1A detected
T1 construct: treated as the same protein; also called recombinant biotin-conjugated human TNFRSF25 protein; DR3
T1 sequence (looked up): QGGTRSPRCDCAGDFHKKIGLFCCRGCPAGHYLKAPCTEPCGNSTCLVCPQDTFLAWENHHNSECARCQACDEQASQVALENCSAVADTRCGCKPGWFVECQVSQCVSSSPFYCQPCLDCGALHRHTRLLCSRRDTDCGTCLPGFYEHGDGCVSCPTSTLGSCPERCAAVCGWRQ
Text: (FIG. 2A) TNFRSF25 was precoated on MSD assay plates followed by adding scFv supernatant at 2-fold serial-dilutions followed by detection of the myc tag present on the C-terminus of the scFv's. (FIG. 2B) scFv supernatant were serially diluted and added to an MSD-plate pre-coated with TNFRSF25.

[2] = biological target: FcγR1 (CD64), BLI reagent (UniProt P12314 16-288, limits assumed); experiment: BLI; antibody as analyte at 300 nM on FcγR1
[3] = biological target: T1, biotinylated recombinant human …; experiment: BLI/Octet; biotinylated TNFRSF25 on streptavidin sensor, mAb in solution; 1:1 Langmuir model
Text: Provided herein are monoclonal and biparatopic antibodies that specifically target human TNFRSF25. The monoclonal antibodies were produced in an engineered CHOK1 cell-line by transfecting the cells with vectors genetically encoding the Heavy and Light chain antibody sequences followed by a single-step affinity-capture chromatography using FcXL resins. The final monoclonal antibody preparation was buffer exchanged into PBS, pH 7.4. Production of biparatopic antibodies followed a two-step process. In the first step of the process, the so called Knob-half (or Hole-half) antibody was produced by transfecting an engineered CHOK1 cell-line with vectors genetically encoding the Knob (or the Hole) Heavy chain and the corresponding Light chain sequences. The CHOK1-cell-harvest from the Knob-half antibody and Hole half-antibody was then purified by Protein A column-based chromatography. In the second step of the process, the two half-antibodies were reassembled into the desired biparatopic format by the use of a mild reduction step followed by quenching the reaction with buffer exchange into PBS, pH 7.4. To detect binding of the antibodies to human TNFRSF25, recombinant biotin-conjugated human TNFRSF25 protein was immobilized onto a streptavidin-coated MSD (Meso Scale Discovery) plate and allowed to bind the anti-TNFRSF25 mAbs in solution. Following a washing step, the bound antibodies were detected using a sulfo-tagged anti-human Fc antibody. The results of these MSD assays are shown in arbitrary units (au) on the y-axis of FIG. 1. To determine the binding affinity of the antibodies to recombinant human TNFRSF25 protein, recombinant biotin-conjugated human TNFRSF25 protein was immobilized onto a streptavidin-coated BLI sensor and allowed to bind the anti-TNFRSF25 mAbs in solution phase. The binding affinity (K_D) was calculated using the on-rates (Ka) and off-rates (Kd) of mAb binding to the target using a 1:1 Langmuir binding model in the ForteBio data analysis software.

[4] = biological target: T2, biotinylated recombinant human FcRn-His tagged protein (Acro #FCM-H82W7) (human, UniProt P55899 24-297; P61769 21-119, biotinylated); experiment: BLI/Octet; biotinylated human FcRn-His on streptavidin biosensor
T2 construct: also called hFcRn; neonatal Fc receptor
Description: (§1) Figure 5D: FIG. 5D. FcRn binding kinetics by anti-TNFRSF25 antibodies. BLI assay was performed using the Octet Red 96e instrument. Streptavidin biosensors were loaded with biotinylated recombinant human(h) FcRn-His tagged protein (Acro #FCM-H82W7) as the ligand. During the association phase, biosensors were incubated with anti-DR3 candidate antibodies at various concentrations for 600 seconds, followed by a 600-second dissociation phase.
(§2) To detect binding of certain whole antibodies to the neonatal Fc receptor (FcRn) at neutral and acidic pH conditions, streptavidin biosensors were loaded with biotinylated recombinant human FcRn-His tagged protein (Acro #FCM-H82W7) as the ligand. During the association phase, biosensors were incubated with anti-TNFRSF25 antibodies at various concentrations for 600 seconds, followed by a 600 second dissociation phase.

[5] = biological target: T2, biotinylated recombinant human FcRn-His …; experiment: BLI/Octet; biotinylated human FcRn-His on streptavidin biosensor; pH 6.0
Description: as §1, §2

[6] = biological target: T2, biotinylated recombinant human FcRn-His …; experiment: BLI/Octet; biotinylated human FcRn-His on streptavidin biosensor; pH 7.4
Description: as §1, §2

[7] = biological target: T1, biotinylated recombinant human …; experiment: MSD competition (lower panel); antibody on TNFRSF25-coated plate, wash, then TL1A-rabbit Fc at 0.4 ug/ml, sulfo-tag anti-rabbit detection; raw MSD signal
Description: (§3) Figure 6: FIG. 6. […] Human TNFRSF25 was precoated on MSD assay plates followed by incubating with various concentrations of anti-TNFRSF25 antibodies.

[8] = biological target: T1, biotinylated recombinant human …; experiment: MSD competition; TNFRSF25 on plate, antibody titrated, then TL1A-rabbit Fc 0.4 µg/ml as competitor
Description: as §3

[9] = biological target: T1, biotinylated recombinant human …; experiment: BLI/Octet Red 96e; biotinylated TNFRSF25-His on streptavidin biosensor; 600 s association, 600 s dissociation
Description: Figure 4: FIG. 4. TNFRSF25 binding affinity of anti-TNFRSF25 antibodies. BLI assay was performed using the Octet Red 96e instrument. Streptavidin biosensors were loaded with biotinylated recombinant human TNFRSF25-His tagged (Acro #TN5-H52H3) as the ligand. During the association phase, biosensors were incubated with anti-TNFRSF25 antibodies at various concentrations for 600 seconds, followed by a 600-second dissociation phase.
as §2, with “human TNFRSF25,” for “the neonatal Fc receptor (FcRn) at neutral and acidic pH conditions,”, “TNFRSF25-His” for “FcRn-His”, “tagged” for “tagged protein”, “#TN5-H52H3)” for “#FCM-H82W7)”

Chain of FcγR1 (CD64), BLI reagent (P12314 16-288 limits assumed): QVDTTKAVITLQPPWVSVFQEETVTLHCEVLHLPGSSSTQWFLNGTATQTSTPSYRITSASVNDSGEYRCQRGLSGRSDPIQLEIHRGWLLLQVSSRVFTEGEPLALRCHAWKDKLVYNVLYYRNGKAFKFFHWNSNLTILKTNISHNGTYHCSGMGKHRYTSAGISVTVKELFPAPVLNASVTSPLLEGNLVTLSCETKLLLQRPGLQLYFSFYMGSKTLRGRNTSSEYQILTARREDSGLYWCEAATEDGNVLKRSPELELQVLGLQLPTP

- binding result [1]: binds
B2: NH24-72 (scFv, not shown: small tags and cut ends)
scFv: EVQLVESGGGSVQPGGSLRLSCAASGFTFSSYGMNWIRQAPGKGLEWITYISSSGGHTYYADSVKGRFTISRDNAKNSLYLQMNSLRAEDTAVYYCARGQGPFEYWGQGTLVTVSSGGRGSGGGGSGSGGSDIVMTQSPSSLSASVGDRVTITCQASQDISNYLSWYQQKPGKAPKLLINDASNLETGVPSRFSGSGSGTDFTFTISSLQPEDIATYYCQQYDNLPITFGQGTRLEIKR
notes: one of the four variants of group m25; used as unpurified E. coli supernatant; the sheet prints NH24-72; also called NH24-72 scFv

- binding result [2]: no binding (tested: 300 nM)
- Kd [3]: < 1 nM
B3: SL-034 (antibody, human IgG1, kappa, L234A L235A, N297A)
heavy: QVQLQQSGPGLVKPSQTLSLTCAISGDSVSGYSAAWNWIRQSPSRGLEWLGRTYYRSKWYNDYAVSVKSRITINPDTSKNQFSLQLNSVTPEDTAVYYCARDYYGSESYYNRGYYYYGMDVWGQGTTVTVSSASTKGPSVFPLAPSSKSTSGGTAALGCLVKDYFPEPVTVSWNSGALTSGVHTFPAVLQSSGLYSLSSVVTVPSSSLGTQTYICNVNHKPSNTKVDKKVEPKSCDKTHTCPPCPAPEAAGGPSVFLFPPKPKDTLMISRTPEVTCVVVDVSHEDPEVKFNWYVDGVEVHNAKTKPREEQYASTYRVVSVLTVLHQDWLNGKEYKCKVSNKALPAPIEKTISKAKGQPREPQVYTLPPSREEMTKNQVSLTCLVKGFYPSDIAVEWESNGQPENNYKTTPPVLDSDGSFFLYSKLTVDKSRWQQGNVFSCSVMHEALHNHYTQKSLSLSPGK
light: AIQLTQSPSSLSASVGDRVTITCRASPGISSALAWYQQKPGKAPKLLMYDESSQESGVPSRFSGSGSGTDFTLTISSLQPEDFATYYCQQFNDYPLTFGGGTKVEIKRTVAAPSVFIFPPSDEQLKSGTASVVCLLNNFYPREAKVQWKVDNALQSGNSQESVTEQDSKDSTYSLSSTLTLSKADYEKHKVYACEVTHQGLSSPVTKSFNRGEC
notes: Same variable regions as SL-033; also called clone 034; L234A/L235A+N297A

- fold improvement in binding affinity at pH 6.0 compared to pH 7.4 [4]: ~10 fold
- Kd [5]: 0.966 nM
- koff [5]: 0.000193 s⁻¹
- kon [5]: 200000 M⁻¹ s⁻¹
- Kd [6]: 8.08 nM
- koff [6]: 0.00179 s⁻¹
- kon [6]: 222000 M⁻¹ s⁻¹
- IC50 (read off the curve) [7]: ~0.07 nM
B4: SL-061_YTE (antibody, human IgG1, kappa)
heavy: B3 heavy with G252A, M267Y, S269T, T271E, A312N
light: B3 light
notes: SL-061 with YTE half-life extension changes in the Fc

- fold improvement in binding affinity at pH 6.0 compared to pH 7.4 [4]: ~10 fold
- Kd [5]: 0.879 nM
- koff [5]: 0.000181 s⁻¹
- kon [5]: 206000 M⁻¹ s⁻¹
- Kd [6]: 6.78 nM
- koff [6]: 0.00144 s⁻¹
- kon [6]: 213000 M⁻¹ s⁻¹
- IC50 (read off the curve) [7]: ~0.2 nM
B5: SL-061_LS (antibody, human IgG1, kappa)
heavy: B3 heavy with G252A, A312N, M443L, N449S
light: B3 light
notes: SL-061 with LS half-life extension changes in the Fc

- Kd [3]: 3.6 nM
B8: SL-038 (antibody, human IgG1, kappa, L234A L235A, V domains shown)
VH: EVQLVESGGGLSQPGNSLQLSCEASGFTFSNHDMNWVRQAPGKGLEWVAYISSASGLISYADSVRGRFTISRDNAKNSLFLQMNNLKSEDTAMYYCARDPAYSGNYALDFWGQGTQVTVSS
VL: QPVLTQSPSASASLSGSVKLTCTLSSELSSYTIVWYQQQPDKAPKYVMYLKSDGSHGKGDGIPDRFSGSSSGAHRYLSVSNVQSEDDATYFCGAGYTLAGQYGWVFGSGTKVTVLR

Continued, binder first:

B1: NH24-47 (scFv, not shown: small tags and cut ends)
scFv: B2 scFv with N35S, I37V, T49S, G99Y, Q100S, P102A, E104D, Y105R, L111P, N180S
notes: one of the four variants of group m25; used as unpurified E. coli supernatant; the sheet prints NH24-47; also called NH24-47 scFv
- binding result [1]: binds

B6: NH24 (whole antibody) (antibody, human IgG1, kappa, V domains shown)
VH: EVQLVESGGGSVQPGGSLRLSCAASGFTFSSYGMSWIRQAPGKGLEWISYISSSGGHTYYADSVKGRFTISRDNAKNSLYLQMNSLRAEDTAVYYCARGSGSFDYWGQGTLVTVSS
VL: DIVMTQSPSSLSASVGDRVTITCQASQDITNYLSWYQQKPGKAPKLLISDASNLETGIPSRFSGSGSGTDFTFTISSLQPEDIATYYCQQYDTLPITFGQGTRLEIKR
- Kd [3]: 0.59 nM
- IC50 [8]: 39.4 nM
- Response (RU) [9]: 0.73 RU
- koff [9]: 0.000742 s⁻¹
- kon [9]: 1.26e+06 M⁻¹ s⁻¹

B7: NH46 (whole antibody) (antibody, human IgG1, kappa, V domains shown)
VH: QVQLVQSGSEVKKPGASVRVSCKVSGSTVKELSMHWVRQAPGKGLEWMGGYDPEDGESIFAQKFQGRVNMTEDRSTDTAYMELSSLRSEDTAVYYCATDLNWEDAFDVWGQGTMVTVSS
VL: QSVLTQPPSVSAAPGQKVTISCSGSGSNIGNYYVAWYQQFPGTAPKLLIYDNNKRPSGIPDRFSGSKSGTSATLGITGLQTGDEADYYCGTWDTSLTAGDIYVFGTGTKVTVLR
- Kd [3]: 0.185 nM
- IC50 [8]: 0.26 nM
- Response (RU) [9]: 1.06 RU
- koff [9]: 8.54e-05 s⁻¹
- kon [9]: 452000 M⁻¹ s⁻¹
